Measurements reported in patent publication US20130230504A1 (CHILDREN S MEDICAL CENTER, published 2013).

Experiments:
[1] = target: VEGF165 receptor (VEGF165R) (human) (UniProt O14786); assay: competition with 125I-VEGF165 (5 ng/ml) on HUVEC (KDR/Flk-1 and VEGF165R), increasing GST-Ex 7+8, gamma counting
[2] = target: VEGF165 receptor (VEGF165R) (human) (UniProt O14786); assay: competition with 125I-VEGF165 (5 ng/ml) on MDA-MB-231 cells (VEGF165R only), increasing GST-Ex 7+8, gamma counting
[3] = target: VEGF165 receptor (VEGF165R) (human) (UniProt O14786); assay: competition with 125I-VEGF165 (5 ng/ml) on HUVEC at 2 ug/ml GST-Ex 7, gamma counting
KDR/Flk-1 = KDR/Flk-1 (human, UniProt P35968 20-1356); assay: cell-based or functional assay
Sequence of KDR/Flk-1 (P35968 20-1356): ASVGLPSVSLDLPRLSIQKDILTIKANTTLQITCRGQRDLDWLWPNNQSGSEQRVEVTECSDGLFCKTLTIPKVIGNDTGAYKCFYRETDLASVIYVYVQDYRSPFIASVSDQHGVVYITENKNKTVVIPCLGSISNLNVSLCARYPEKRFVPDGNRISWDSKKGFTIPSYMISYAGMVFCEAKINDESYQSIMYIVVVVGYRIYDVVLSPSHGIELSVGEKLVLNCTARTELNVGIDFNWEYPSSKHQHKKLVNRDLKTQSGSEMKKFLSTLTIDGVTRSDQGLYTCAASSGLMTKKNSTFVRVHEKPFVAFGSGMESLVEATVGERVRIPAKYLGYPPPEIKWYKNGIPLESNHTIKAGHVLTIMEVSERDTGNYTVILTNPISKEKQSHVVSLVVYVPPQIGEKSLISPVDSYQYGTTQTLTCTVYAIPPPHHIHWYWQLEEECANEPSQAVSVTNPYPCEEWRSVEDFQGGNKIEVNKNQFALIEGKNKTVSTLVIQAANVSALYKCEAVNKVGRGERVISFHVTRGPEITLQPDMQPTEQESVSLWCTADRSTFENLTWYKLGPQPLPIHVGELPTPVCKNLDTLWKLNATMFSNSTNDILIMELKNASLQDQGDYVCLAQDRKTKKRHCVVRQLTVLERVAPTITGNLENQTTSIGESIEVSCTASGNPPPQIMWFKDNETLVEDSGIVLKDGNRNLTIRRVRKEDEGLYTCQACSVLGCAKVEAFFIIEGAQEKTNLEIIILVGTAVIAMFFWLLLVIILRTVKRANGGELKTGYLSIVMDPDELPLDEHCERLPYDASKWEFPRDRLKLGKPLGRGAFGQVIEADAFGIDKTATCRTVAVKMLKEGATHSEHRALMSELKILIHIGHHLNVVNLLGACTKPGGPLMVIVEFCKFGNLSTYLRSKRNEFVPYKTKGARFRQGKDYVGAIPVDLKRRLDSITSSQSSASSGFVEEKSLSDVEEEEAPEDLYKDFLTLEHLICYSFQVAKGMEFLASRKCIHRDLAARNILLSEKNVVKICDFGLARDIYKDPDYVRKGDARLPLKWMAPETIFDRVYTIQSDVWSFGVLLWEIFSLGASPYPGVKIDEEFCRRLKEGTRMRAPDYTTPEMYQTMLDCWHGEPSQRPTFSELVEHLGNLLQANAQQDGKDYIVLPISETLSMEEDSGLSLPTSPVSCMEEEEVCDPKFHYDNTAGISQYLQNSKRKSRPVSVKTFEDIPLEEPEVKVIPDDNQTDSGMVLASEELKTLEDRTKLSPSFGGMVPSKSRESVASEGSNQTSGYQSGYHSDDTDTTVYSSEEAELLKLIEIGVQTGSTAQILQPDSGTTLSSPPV

Sequence of VEGF165 receptor (VEGF165R) (human) (O14786 22-923): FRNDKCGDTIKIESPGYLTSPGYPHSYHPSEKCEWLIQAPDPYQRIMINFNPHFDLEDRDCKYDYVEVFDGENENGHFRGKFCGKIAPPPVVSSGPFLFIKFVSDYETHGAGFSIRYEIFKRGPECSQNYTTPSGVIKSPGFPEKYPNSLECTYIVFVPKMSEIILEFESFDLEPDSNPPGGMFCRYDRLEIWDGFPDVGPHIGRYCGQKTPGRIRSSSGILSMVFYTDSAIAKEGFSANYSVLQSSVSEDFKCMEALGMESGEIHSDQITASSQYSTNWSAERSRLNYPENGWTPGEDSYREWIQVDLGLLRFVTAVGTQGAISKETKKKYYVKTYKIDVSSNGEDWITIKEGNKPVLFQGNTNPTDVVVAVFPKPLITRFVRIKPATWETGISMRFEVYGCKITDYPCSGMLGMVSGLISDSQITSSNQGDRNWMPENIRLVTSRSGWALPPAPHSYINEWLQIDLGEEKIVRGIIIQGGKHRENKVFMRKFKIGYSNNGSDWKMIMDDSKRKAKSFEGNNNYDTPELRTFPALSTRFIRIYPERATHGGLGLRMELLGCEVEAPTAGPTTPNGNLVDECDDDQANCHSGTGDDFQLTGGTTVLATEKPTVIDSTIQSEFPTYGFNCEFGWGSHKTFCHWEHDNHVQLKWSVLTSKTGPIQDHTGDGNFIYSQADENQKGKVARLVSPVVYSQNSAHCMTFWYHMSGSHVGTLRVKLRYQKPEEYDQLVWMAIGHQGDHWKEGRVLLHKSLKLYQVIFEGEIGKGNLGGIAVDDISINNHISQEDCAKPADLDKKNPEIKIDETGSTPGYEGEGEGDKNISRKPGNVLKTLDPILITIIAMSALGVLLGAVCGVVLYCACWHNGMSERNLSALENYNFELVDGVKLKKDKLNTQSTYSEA

**Q.** For “GST-Ex 7+8 fusion protein (GST fused to the VEGF165 exons 7- and 8-encoded peptide) (from UniProt P15692 187-191)”, which percent inhibition of 125I-VEGF165 binding [1] is on record?
**A.** The percent inhibition of 125I-VEGF165 binding was 85 to 95%.

**Q.** And the percent inhibition of 125I-VEGF165 binding [2]?
**A.** Its percent inhibition of 125I-VEGF165 binding is 97 to 98%.

**Q.** How did the percent inhibition of 125I-VEGF165 binding [3] turn out when “GST-Ex 7 fusion protein (GST fused to the 44 amino acids encoded by VEGF exon 7 plus the first cysteine of exon 8) (from UniProt P08515 1-218)” was run?
**A.** The percent inhibition of 125I-VEGF165 binding was 80%.

B1: Human recombinant VEGF121 (ligand, UniProt P15692-9 27-147, looked up)
chain: APMAEGGGQNHHEVVKFMDVYQRSYCHPIETLVDIFQEYPDEIEYIFKPSCVPLMRCGGCCNDEGLECVPTEESNITMQIMRIKPHQGQHIGEMSFLQHNKCECRPKKDRARQEKCDKPRR
modifications: radioiodinated (125I, IODO-BEADS) in the cross-linking assays
**Q.** How did the “fold decrease in VEGF121-mediated HUVEC proliferation with 15 ug/ml GST-Ex 7+8” value (KDR/Flk-1) turn out when B1 was run?
**A.** Its value is ~2 fold.
